Broadly, the stoichiometry N is the number of molecules, sites or subunits per partner or assembly.

From publication PMC10827105 come the findings set out here.

The target of series [1] is CifRTR (CifR C99T/C181R) (Pseudomonas aeruginosa). The experiment in a line: SEC. (In general: Size exclusion chromatography separates by hydrodynamic size, large species first.)
Series [2] has the same target. The series is described as follows: SEC + AUC.
Series [3] addresses T1, CifRTR (Pseudomonas aeruginosa, UniProt A0A0H2ZCS5 1-196, C99T;C181R). The series is described as follows: EMSA.
Series [4] deals with T1, CifRTR. The series is described as follows: EMSA. This is another data set of the same source. A general note: A gel shift assay detects complexes by their altered migration in electrophoresis.
For series [5], the target named is T1, CifRTR. The experiment in a line: SEC.
The target of the next series is CifRTR-C107S (Pseudomonas aeruginosa, UniProt A0A0H2ZCS5 1-196, C99T;C107S;C181R). The experiment in a line: X-ray crystallography.

For “CifRTR (CifR C99T/C181R) (natural protein)”, the stoichiometry N in series [1] and in series [2] was 2 throughout.

B1: cifR-prox dsDNA23 (dsDNA)
DNA 1: TATTTGTATCGATCACTATAAAT
DNA 2: ATTTATAGTGATCGATACAAATA
Take B1: the binding result in the series with CifRTR [3] is on record as “binds”.

B2: cifR-prox dsDNA36 (dsDNA)
DNA 1: CCTCCATTATTTGTATCGATCACTATAAATTTACTT
DNA 2: AAGTAAATTTATAGTGATCGATACAAATAATGGAGG
Consider B2, for which the binding result in the series with CifRTR [4] is given as “binds”.

B3: cifR-prox dsDNA26L (dsDNA)
DNA 1: TTATTTGTATCGATCACTATAAATTT
DNA 2: AAATTTATAGTGATCGATACAAATAA
Consider B3, for which the binding result with CifRTR [5] and in the series with CifRTR-C107S was “binds” each time.
